Laboratory results: the Immune Epitope Database (IEDB)
pIC50, pKd: −log10 of the molar value.

Tests used:
HLA-B*39:01 [1] = assay: IEDB peptide-MHC binding, purified MHC/direct/fluorescence; filed as Kd, often an IC50 or EC50 that approximates it; ≥ and ≤ were set here for values at or beyond the usual limits of such assays
HLA-B*07:02 = assay: as above
HLA-A*31:01 = assay: as above
HLA-B*15:01 = assay: as above
HLA-B*46:01 = assay: as above
HLA-B*08:02 = assay: as above
HLA-B*27:05 = assay: as above
HLA-B*08:03 = assay: as above
HLA-B*58:01 = assay: as above
HLA-A*69:01 = assay: as above
HLA-B*57:01 = assay: as above
HLA-B*48:01 = assay: as above
HLA-A*11:01 = assay: as above
HLA-A*01:01 = assay: as above
HLA-B*15:02 = assay: as above
HLA-B*15:17 = assay: as above
HLA-A*02:01 [2] = assay: as above
HLA-A*68:02 [3] = assay: IEDB peptide-MHC binding, purified MHC/competitive/fluorescence; filed as Kd, often an IC50 or EC50 that approximates it; ≥ and ≤ were set here for values at or beyond the usual limits of such assays; conditions: source organism: Zaire ebolavirus
HLA-B*35:01 [4] = assay: as above; conditions: source organism: Zaire ebolavirus
HLA-A*30:01 = assay: as above; conditions: source organism: Zaire ebolavirus
HLA-A*26:01 [5] = assay: as above
HLA-A*26:02 = assay: as above
HLA-C*06:02 = assay: IEDB peptide-MHC binding, purified MHC/direct/fluorescence; filed as Kd, often an IC50 or EC50 that approximates it; ≥ and ≤ were set here for values at or beyond the usual limits of such assays
HLA-A*02:01 [6] = assay: IEDB peptide-MHC binding, purified MHC/competitive/radioactivity; ≥ and ≤ were set here for values at or beyond the usual limits of such assays; conditions: source organism: Rhinovirus C
HLA-C*08:02 = assay: IEDB peptide-MHC binding, purified MHC/direct/fluorescence; filed as Kd, often an IC50 or EC50 that approximates it; ≥ and ≤ were set here for values at or beyond the usual limits of such assays
HLA-C*12:03 = assay: as above
HLA-A*02:01 [7] = assay: IEDB peptide-MHC binding, purified MHC/competitive/fluorescence; filed as Kd, often an IC50 or EC50 that approximates it; ≥ and ≤ were set here for values at or beyond the usual limits of such assays
HLA-A*68:02 [8] = assay: IEDB peptide-MHC binding, purified MHC/direct/fluorescence; filed as Kd, often an IC50 or EC50 that approximates it; ≥ and ≤ were set here for values at or beyond the usual limits of such assays; conditions: source organism: Influenza A virus (A/Quail/Shanghai/8/96(H9N2))
HLA-B*08:01 = assay: as above
HLA-B*35:01 [9] = assay: as above
HLA-C*03:03 = assay: as above; conditions: source organism: Salmonella enterica subsp. enterica serovar Typhi str. CT18
HLA-C*05:01 = assay: as above; conditions: source organism: Salmonella enterica subsp. enterica serovar Typhi str. CT18
HLA-B*39:01 [10] = assay: IEDB peptide-MHC binding, purified MHC/competitive/fluorescence; filed as Kd, often an IC50 or EC50 that approximates it; ≥ and ≤ were set here for values at or beyond the usual limits of such assays
HLA-A*32:15 = assay: as above; conditions: source organism: Salmonella enterica subsp. enterica serovar Typhi
HLA-B*15:42 = assay: as above; conditions: source organism: Salmonella enterica subsp. enterica serovar Typhi
HLA-C*14:02 = assay: as above; conditions: source organism: Salmonella enterica subsp. enterica serovar Typhi
HLA-B*45:06 = assay: as above; conditions: source organism: Salmonella enterica subsp. enterica serovar Typhi
HLA-B*83:01 = assay: as above; conditions: source organism: Salmonella enterica subsp. enterica serovar Typhi
HLA-A*68:23 = assay: as above; conditions: source organism: Salmonella enterica subsp. enterica serovar Typhi
HLA-A*32:07 = assay: as above; conditions: source organism: Salmonella enterica subsp. enterica serovar Typhi
HLA-A*26:01 [11] = assay: IEDB peptide-MHC binding, purified MHC/direct/fluorescence; filed as Kd, often an IC50 or EC50 that approximates it; ≥ and ≤ were set here for values at or beyond the usual limits of such assays; conditions: source organism: Rickettsia prowazekii
HLA-B*44:02 = assay: as above; conditions: source organism: Rickettsia prowazekii
HLA-A*03:01 = assay: as above; conditions: source organism: Rickettsia prowazekii
HLA-B*40:01 = assay: as above; conditions: source organism: Rickettsia prowazekii
[12] = source organism: Ravn virus - Ravn, Kenya, 1987
[13] = source organism: Ebola virus - Mayinga, Zaire, 1976
[14] = source organism: Zaire ebolavirus
[15] = source organism: Pseudomonas putida
[16] = source organism: Pseudomonas aeruginosa PACS2
[17] = source organism: Escherichia coli 536
[18] = source organism: Influenza A virus (A/Quail/Shanghai/8/96(H9N2))
[19] = source organism: Salmonella enterica subsp. enterica serovar Typhi
[20] = source organism: Rickettsia prowazekii
[21] = source organism: Salmonella enterica

For FIYFGKKQY, the pKd (HLA-B*39:01 [1]; [12]) was ≤ 4.70, the pKd (HLA-B*07:02; [13]) was ≤ 4.70 and the pKd (HLA-A*31:01; [13]) was ≤ 4.70. For the same sequence, the pKd (HLA-B*15:01; [13]) was 7.17, the pKd (HLA-B*46:01; [13]) was ≤ 4.70 and the pKd (HLA-B*08:02; [12]) was ≤ 4.70. For the same sequence, the pKd (HLA-B*27:05; [13]) was ≤ 4.70, the pKd (HLA-B*08:03; [12]) was ≤ 4.70 and the pKd (HLA-B*58:01; [13]) was ≤ 4.70. For the same sequence, the pKd (HLA-A*69:01; [13]) was ≤ 4.70, the pKd (HLA-B*57:01; [13]) was 5.15 and the pKd (HLA-B*48:01; [13]) was ≤ 4.70. For the same sequence, the pKd (HLA-A*11:01; [13]) was ≤ 4.70, the pKd (HLA-A*01:01; [13]) was 6.35 and the pKd (HLA-B*15:02; [12]) was 8.10. The pKd (HLA-B*15:17; [13]) was 6.87, the pKd (HLA-A*02:01 [2]; [13]) was ≤ 4.70 and the pKd (HLA-A*68:02 [3]) was 5.30. The pKd (HLA-B*35:01 [4]) was 5.83, the pKd (HLA-A*30:01) was ≤ 4.70 and the pKd (HLA-A*26:01 [5]; [14]) was 5.64. The pKd (HLA-A*26:02; [14]) was ≤ 4.70.
FQYLLPGFVL showed a pKd (HLA-C*06:02; source organism: Variola virus) of 5.06.
GLEPLDLNT showed a pIC50 (HLA-A*02:01 [6]) of 6.30.
With IVHPPMLYM the pKd (HLA-B*58:01; [15]) was 5.22, the pKd (HLA-C*08:02; [16]) was ≤ 4.70 and the pKd (HLA-B*57:01; source organism: Vibrio vulnificus CMCP6) was 5.66. It also gave a pKd (HLA-C*12:03; [16]) of 7.21 and a pKd (HLA-B*15:17; [15]) of 7.21.
LLDEYRDYI was tested, and the pKd (HLA-C*08:02; [17]) was ≤ 4.70 and the pKd (HLA-A*02:01 [7]; [17]) was 8.96.
With LVGGREWSY the pKd (HLA-B*39:01 [1]; [18]) was ≤ 4.70, the pKd (HLA-B*07:02; [18]) was ≤ 4.70 and the pKd (HLA-A*31:01; [18]) was ≤ 4.70. For the same sequence, the pKd (HLA-B*15:01; [18]) was 5.92, the pKd (HLA-B*46:01; [18]) was ≤ 4.70 and the pKd (HLA-B*08:02; [18]) was ≤ 4.70. For the same sequence, the pKd (HLA-A*68:02 [8]) was ≤ 4.70, the pKd (HLA-B*27:05; [18]) was ≤ 4.70 and the pKd (HLA-B*08:01; [18]) was ≤ 4.70. For the same sequence, the pKd (HLA-B*08:03; [18]) was ≤ 4.70, the pKd (HLA-B*35:01 [9]; [18]) was 6.07 and the pKd (HLA-B*58:01; [18]) was ≤ 4.70. For the same sequence, the pKd (HLA-A*69:01; [18]) was ≤ 4.70, the pKd (HLA-B*57:01; [18]) was 5.89 and the pKd (HLA-B*48:01; [18]) was ≤ 4.70. For the same sequence, the pKd (HLA-A*11:01; [18]) was ≤ 4.70, the pKd (HLA-A*01:01; [18]) was ≤ 4.70 and the pKd (HLA-B*15:02; [18]) was ≤ 4.70. The pKd (HLA-B*15:17; [18]) was 5.72, the pKd (HLA-A*02:01 [2]; [18]) was ≤ 4.70 and the pKd (HLA-A*26:01 [5]; [18]) was ≤ 4.70. For the same sequence, the pKd (HLA-A*26:02; [18]) was ≤ 4.70.
With WTFTPTTPL the pKd (HLA-C*03:03) was ≥ 9.00, the pKd (HLA-C*05:01) was ≤ 4.70 and the pKd (HLA-C*12:03; source organism: Salmonella enterica subsp. enterica serovar Typhi str. CT18) was 6.67. For the same sequence, the pKd (HLA-B*39:01 [10]; [19]) was 6.33, the pKd (HLA-A*32:15) was 7.24 and the pKd (HLA-B*15:42) was ≤ 5.30. The pKd (HLA-C*14:02) was 7.41, the pKd (HLA-B*45:06) was ≤ 5.30 and the pKd (HLA-B*83:01) was ≤ 5.30. For the same sequence, the pKd (HLA-A*68:23) was 9.40, the pKd (HLA-A*26:01 [5]; [19]) was 6.24 and the pKd (HLA-A*32:07) was 6.12. The pKd (HLA-A*02:01 [7]; [19]) was 8.24.
For YGGKKAVTY, the pKd (HLA-B*07:02; [20]) was ≤ 4.70, the pKd (HLA-A*31:01; [20]) was ≤ 4.70 and the pKd (HLA-B*15:01; [20]) was 5.85. The pKd (HLA-B*46:01; [20]) was ≤ 4.70, the pKd (HLA-B*27:05; [20]) was ≤ 4.70 and the pKd (HLA-B*08:01; [20]) was ≤ 4.70. The pKd (HLA-B*35:01 [9]; [20]) was 6.60, the pKd (HLA-B*58:01; [20]) was ≤ 4.70 and the pKd (HLA-A*69:01; [20]) was ≤ 4.70. For the same sequence, the pKd (HLA-A*26:01 [11]) was ≤ 4.70, the pKd (HLA-B*44:02) was ≤ 4.70 and the pKd (HLA-A*03:01) was ≤ 4.70. For the same sequence, the pKd (HLA-A*11:01; [20]) was ≤ 4.70, the pKd (HLA-A*01:01; [20]) was ≤ 4.70 and the pKd (HLA-B*15:02; [20]) was ≤ 4.70. For the same sequence, the pKd (HLA-B*40:01) was ≤ 4.70 and the pKd (HLA-A*02:01 [2]; [20]) was ≤ 4.70.
Work on YRYISFLVL yielded a pKd (HLA-C*06:02; [21]) of 6.19 and a pKd (HLA-B*39:01 [10]; [21]) of 6.27.
